Measured values published in patent US20210388087A1 (Chugai, published 2021).

Molecular target: T1, Human CD3eg linker (human)
T1 construct: Single-chain construct; also called recombinant human CD3
T1 chain: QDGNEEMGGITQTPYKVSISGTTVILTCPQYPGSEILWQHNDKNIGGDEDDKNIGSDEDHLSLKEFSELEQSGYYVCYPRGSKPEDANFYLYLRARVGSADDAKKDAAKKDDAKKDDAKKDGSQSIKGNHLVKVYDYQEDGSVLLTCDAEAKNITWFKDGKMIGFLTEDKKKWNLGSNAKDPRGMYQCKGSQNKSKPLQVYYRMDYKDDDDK
Assay: SPR; fold vs parent H183/L072

Binder	fold change of affinity [fold]
H183/L072 VL T97L (antibody, name in Kabat numbering, V domains shown) VH: QVQLVESGGGLVQPGRSLRLSCAASGFTFSNAWMHWVRQAPGKGLEWVAQIKDKGNAYAAYYAPSVKGRFTISRDDSKNSIYLQMNSLKTEDTAVYYCHYVHYASASTVLPAFGVDAWGQGTTVTVSS VL: DIVMTQSPLSLPVTPGEPASISCQASQELVHMNRNTYLHWYQQKPGQAPRLLIYKVSNRFPGVPDRFSGSGSGTDFTLKISRVEAEDVGVYYCAQGTSVPFLFGQGTKLEIK	0.4
H183/L072 VL T97M (antibody, name in Kabat numbering, V domains shown) VH: QVQLVESGGGLVQPGRSLRLSCAASGFTFSNAWMHWVRQAPGKGLEWVAQIKDKGNAYAAYYAPSVKGRFTISRDDSKNSIYLQMNSLKTEDTAVYYCHYVHYASASTVLPAFGVDAWGQGTTVTVSS VL: DIVMTQSPLSLPVTPGEPASISCQASQELVHMNRNTYLHWYQQKPGQAPRLLIYKVSNRFPGVPDRFSGSGSGTDFTLKISRVEAEDVGVYYCAQGTSVPFMFGQGTKLEIK	0.7
H183/L072 VL T97N (antibody, name in Kabat numbering, V domains shown) VH: QVQLVESGGGLVQPGRSLRLSCAASGFTFSNAWMHWVRQAPGKGLEWVAQIKDKGNAYAAYYAPSVKGRFTISRDDSKNSIYLQMNSLKTEDTAVYYCHYVHYASASTVLPAFGVDAWGQGTTVTVSS VL: DIVMTQSPLSLPVTPGEPASISCQASQELVHMNRNTYLHWYQQKPGQAPRLLIYKVSNRFPGVPDRFSGSGSGTDFTLKISRVEAEDVGVYYCAQGTSVPFNFGQGTKLEIK	0.5
H183/L072 VL T97Q (antibody, name in Kabat numbering, V domains shown) VH: QVQLVESGGGLVQPGRSLRLSCAASGFTFSNAWMHWVRQAPGKGLEWVAQIKDKGNAYAAYYAPSVKGRFTISRDDSKNSIYLQMNSLKTEDTAVYYCHYVHYASASTVLPAFGVDAWGQGTTVTVSS VL: DIVMTQSPLSLPVTPGEPASISCQASQELVHMNRNTYLHWYQQKPGQAPRLLIYKVSNRFPGVPDRFSGSGSGTDFTLKISRVEAEDVGVYYCAQGTSVPFQFGQGTKLEIK	0.5
H183/L072 VL T97R (antibody, name in Kabat numbering, V domains shown) VH: QVQLVESGGGLVQPGRSLRLSCAASGFTFSNAWMHWVRQAPGKGLEWVAQIKDKGNAYAAYYAPSVKGRFTISRDDSKNSIYLQMNSLKTEDTAVYYCHYVHYASASTVLPAFGVDAWGQGTTVTVSS VL: DIVMTQSPLSLPVTPGEPASISCQASQELVHMNRNTYLHWYQQKPGQAPRLLIYKVSNRFPGVPDRFSGSGSGTDFTLKISRVEAEDVGVYYCAQGTSVPFRFGQGTKLEIK	0.4
H183/L072 VL T97S (antibody, name in Kabat numbering, V domains shown) VH: QVQLVESGGGLVQPGRSLRLSCAASGFTFSNAWMHWVRQAPGKGLEWVAQIKDKGNAYAAYYAPSVKGRFTISRDDSKNSIYLQMNSLKTEDTAVYYCHYVHYASASTVLPAFGVDAWGQGTTVTVSS VL: DIVMTQSPLSLPVTPGEPASISCQASQELVHMNRNTYLHWYQQKPGQAPRLLIYKVSNRFPGVPDRFSGSGSGTDFTLKISRVEAEDVGVYYCAQGTSVPFSFGQGTKLEIK	1.1
H183/L072 VL T97V (antibody, name in Kabat numbering, V domains shown) VH: QVQLVESGGGLVQPGRSLRLSCAASGFTFSNAWMHWVRQAPGKGLEWVAQIKDKGNAYAAYYAPSVKGRFTISRDDSKNSIYLQMNSLKTEDTAVYYCHYVHYASASTVLPAFGVDAWGQGTTVTVSS VL: DIVMTQSPLSLPVTPGEPASISCQASQELVHMNRNTYLHWYQQKPGQAPRLLIYKVSNRFPGVPDRFSGSGSGTDFTLKISRVEAEDVGVYYCAQGTSVPFVFGQGTKLEIK	0.6
H183/L072 VL V27cA (antibody, name in Kabat numbering, V domains shown) VH: QVQLVESGGGLVQPGRSLRLSCAASGFTFSNAWMHWVRQAPGKGLEWVAQIKDKGNAYAAYYAPSVKGRFTISRDDSKNSIYLQMNSLKTEDTAVYYCHYVHYASASTVLPAFGVDAWGQGTTVTVSS VL: DIVMTQSPLSLPVTPGEPASISCQASQELAHMNRNTYLHWYQQKPGQAPRLLIYKVSNRFPGVPDRFSGSGSGTDFTLKISRVEAEDVGVYYCAQGTSVPFTFGQGTKLEIK	0.4
H183/L072 VL V27cD (antibody, name in Kabat numbering, V domains shown) VH: QVQLVESGGGLVQPGRSLRLSCAASGFTFSNAWMHWVRQAPGKGLEWVAQIKDKGNAYAAYYAPSVKGRFTISRDDSKNSIYLQMNSLKTEDTAVYYCHYVHYASASTVLPAFGVDAWGQGTTVTVSS VL: DIVMTQSPLSLPVTPGEPASISCQASQELDHMNRNTYLHWYQQKPGQAPRLLIYKVSNRFPGVPDRFSGSGSGTDFTLKISRVEAEDVGVYYCAQGTSVPFTFGQGTKLEIK	0.1
H183/L072 VL V27cE (antibody, name in Kabat numbering, V domains shown) VH: QVQLVESGGGLVQPGRSLRLSCAASGFTFSNAWMHWVRQAPGKGLEWVAQIKDKGNAYAAYYAPSVKGRFTISRDDSKNSIYLQMNSLKTEDTAVYYCHYVHYASASTVLPAFGVDAWGQGTTVTVSS VL: DIVMTQSPLSLPVTPGEPASISCQASQELEHMNRNTYLHWYQQKPGQAPRLLIYKVSNRFPGVPDRFSGSGSGTDFTLKISRVEAEDVGVYYCAQGTSVPFTFGQGTKLEIK	0.7

Second part, the binder after the results:

fold change of affinity [fold]	Binder
0.5	H183/L072 VL V27cF (antibody, name in Kabat numbering, V domains shown) VH: QVQLVESGGGLVQPGRSLRLSCAASGFTFSNAWMHWVRQAPGKGLEWVAQIKDKGNAYAAYYAPSVKGRFTISRDDSKNSIYLQMNSLKTEDTAVYYCHYVHYASASTVLPAFGVDAWGQGTTVTVSS VL: DIVMTQSPLSLPVTPGEPASISCQASQELFHMNRNTYLHWYQQKPGQAPRLLIYKVSNRFPGVPDRFSGSGSGTDFTLKISRVEAEDVGVYYCAQGTSVPFTFGQGTKLEIK
0.3	H183/L072 VL V27cH (antibody, name in Kabat numbering, V domains shown) VH: QVQLVESGGGLVQPGRSLRLSCAASGFTFSNAWMHWVRQAPGKGLEWVAQIKDKGNAYAAYYAPSVKGRFTISRDDSKNSIYLQMNSLKTEDTAVYYCHYVHYASASTVLPAFGVDAWGQGTTVTVSS VL: DIVMTQSPLSLPVTPGEPASISCQASQELHHMNRNTYLHWYQQKPGQAPRLLIYKVSNRFPGVPDRFSGSGSGTDFTLKISRVEAEDVGVYYCAQGTSVPFTFGQGTKLEIK
1	H183/L072 VL V27cI (antibody, name in Kabat numbering, V domains shown) VH: QVQLVESGGGLVQPGRSLRLSCAASGFTFSNAWMHWVRQAPGKGLEWVAQIKDKGNAYAAYYAPSVKGRFTISRDDSKNSIYLQMNSLKTEDTAVYYCHYVHYASASTVLPAFGVDAWGQGTTVTVSS VL: DIVMTQSPLSLPVTPGEPASISCQASQELIHMNRNTYLHWYQQKPGQAPRLLIYKVSNRFPGVPDRFSGSGSGTDFTLKISRVEAEDVGVYYCAQGTSVPFTFGQGTKLEIK
1.1	H183/L072 VL V27cK (antibody, name in Kabat numbering, V domains shown) VH: QVQLVESGGGLVQPGRSLRLSCAASGFTFSNAWMHWVRQAPGKGLEWVAQIKDKGNAYAAYYAPSVKGRFTISRDDSKNSIYLQMNSLKTEDTAVYYCHYVHYASASTVLPAFGVDAWGQGTTVTVSS VL: DIVMTQSPLSLPVTPGEPASISCQASQELKHMNRNTYLHWYQQKPGQAPRLLIYKVSNRFPGVPDRFSGSGSGTDFTLKISRVEAEDVGVYYCAQGTSVPFTFGQGTKLEIK
0.8	H183/L072 VL V27cL (antibody, name in Kabat numbering, V domains shown) VH: QVQLVESGGGLVQPGRSLRLSCAASGFTFSNAWMHWVRQAPGKGLEWVAQIKDKGNAYAAYYAPSVKGRFTISRDDSKNSIYLQMNSLKTEDTAVYYCHYVHYASASTVLPAFGVDAWGQGTTVTVSS VL: DIVMTQSPLSLPVTPGEPASISCQASQELLHMNRNTYLHWYQQKPGQAPRLLIYKVSNRFPGVPDRFSGSGSGTDFTLKISRVEAEDVGVYYCAQGTSVPFTFGQGTKLEIK
1.1	H183/L072 VL V27cM (antibody, name in Kabat numbering, V domains shown) VH: QVQLVESGGGLVQPGRSLRLSCAASGFTFSNAWMHWVRQAPGKGLEWVAQIKDKGNAYAAYYAPSVKGRFTISRDDSKNSIYLQMNSLKTEDTAVYYCHYVHYASASTVLPAFGVDAWGQGTTVTVSS VL: DIVMTQSPLSLPVTPGEPASISCQASQELMHMNRNTYLHWYQQKPGQAPRLLIYKVSNRFPGVPDRFSGSGSGTDFTLKISRVEAEDVGVYYCAQGTSVPFTFGQGTKLEIK
0.3	H183/L072 VL V27cN (antibody, name in Kabat numbering, V domains shown) VH: QVQLVESGGGLVQPGRSLRLSCAASGFTFSNAWMHWVRQAPGKGLEWVAQIKDKGNAYAAYYAPSVKGRFTISRDDSKNSIYLQMNSLKTEDTAVYYCHYVHYASASTVLPAFGVDAWGQGTTVTVSS VL: DIVMTQSPLSLPVTPGEPASISCQASQELNHMNRNTYLHWYQQKPGQAPRLLIYKVSNRFPGVPDRFSGSGSGTDFTLKISRVEAEDVGVYYCAQGTSVPFTFGQGTKLEIK
1	H183/L072 VL V27cQ (antibody, name in Kabat numbering, V domains shown) VH: QVQLVESGGGLVQPGRSLRLSCAASGFTFSNAWMHWVRQAPGKGLEWVAQIKDKGNAYAAYYAPSVKGRFTISRDDSKNSIYLQMNSLKTEDTAVYYCHYVHYASASTVLPAFGVDAWGQGTTVTVSS VL: DIVMTQSPLSLPVTPGEPASISCQASQELQHMNRNTYLHWYQQKPGQAPRLLIYKVSNRFPGVPDRFSGSGSGTDFTLKISRVEAEDVGVYYCAQGTSVPFTFGQGTKLEIK
1.2	H183/L072 VL V27cR (antibody, name in Kabat numbering, V domains shown) VH: QVQLVESGGGLVQPGRSLRLSCAASGFTFSNAWMHWVRQAPGKGLEWVAQIKDKGNAYAAYYAPSVKGRFTISRDDSKNSIYLQMNSLKTEDTAVYYCHYVHYASASTVLPAFGVDAWGQGTTVTVSS VL: DIVMTQSPLSLPVTPGEPASISCQASQELRHMNRNTYLHWYQQKPGQAPRLLIYKVSNRFPGVPDRFSGSGSGTDFTLKISRVEAEDVGVYYCAQGTSVPFTFGQGTKLEIK
0	H183/L072 VL V27cS (antibody, name in Kabat numbering, V domains shown) VH: QVQLVESGGGLVQPGRSLRLSCAASGFTFSNAWMHWVRQAPGKGLEWVAQIKDKGNAYAAYYAPSVKGRFTISRDDSKNSIYLQMNSLKTEDTAVYYCHYVHYASASTVLPAFGVDAWGQGTTVTVSS VL: DIVMTQSPLSLPVTPGEPASISCQASQELSHMNRNTYLHWYQQKPGQAPRLLIYKVSNRFPGVPDRFSGSGSGTDFTLKISRVEAEDVGVYYCAQGTSVPFTFGQGTKLEIK
